These results are taken from patent US20210395773A1, “IN VIVO CONTROLLED COMBINATION THERAPY FOR TREATMENT OF CANCER” (PRECIGEN, INC., priority 2018, published 2021).

Data set [1] in a line: Phase 1 Main Study: veledimex in plasma and tumor. The format is in vivo, human. As for the experimental part:
FIGS. 21A-21D show a series of graphs depicting veledimex, IL-12 and IFN-γ concentrations upon treatment with veledimex. […] Each symbol represents plasma from a single patient. […] Veledimex was administered to each patient approximately 3 hours before the start of the craniotomy. Serum and tumor at the time of resection were then assayed for veledimex levels.
This study is investigating two intratumoral Ad-RTS-hIL-12 doses (2×10^11 vp or 1×10^12 vp) and escalating veledimex doses (10 mg to 40 mg) to determine the safe and tolerable dose based on the safety profiles observed in the presence of variable corticosteroid exposure. Group 1 received one veledimex dose before a standard-of-care resection procedure, Ad was administered by freehand intratumoral injection, then continued with oral V QD for 14 days. Subjects not scheduled for tumor resection (Group 2) received Ad-RTS-hIL-12 (2×10^11 vp or 1×10^12 vp) by stereotactic injection and then continued on oral veledimex for 14 days.

The nature of data set [2]: Veledimex levels in blood and CSF after oral gavage (blood-brain barrier crossing). The format is in vivo, C57BL/6 mice. Conditions: PO 450 or 1,200 mg/m2/day; normal C57BL/6 and orthotopic GL-261 glioma mice; 24 hours post-veledimex. As for the experimental part:
To generate orthotopic GL-261 glioma mice, a group of C57BL/6 mice received 1×10^5 GL-261 glioma cells via intracranial injection ˜2 mm distal to the intersection of the coronal and sagittal suture. On day 5, the animals were randomly assigned to one of the treatment groups. GL-261, a murine glioma tumor cell line, was purchased from American Type Culture Collection (Manassas, Va.).
Veledimex was administered to normal C57BL/6 mice or orthotopic GL-261 glioma mice via oral gavage (PO) at 450 mg/m2/day or 1,200 mg/m^2/day. Terminal blood and CSF were collected for normal C57BL/6 mice or orthotopic GL-261 glioma mice after 2 days of treatment, and for orthotopic GL-261 glioma mice after 13 days of treatment.

In a further data set the test system is IL-12. As to the kind of experiment: Phase 1 Ad+V with nivolumab in rGBM: serum IL-12. It is filed as in vivo, human. As for the experimental part: (§1) Ad was administered by intratumoral injection (using a dose of 2×10^11 vp (2e11 vp)) along with daily veledimex (V) (at doses of 10-20 mg) QDx15 PO with nivolumab intravenous infusions (at doses of 1-3 mg/kg) at Day (−)7 (i.e., 7 days prior to administration of Ad+V), at Day 15 (after administration of Ad+V), then Q2W (i.e., once every 2-weeks).

Data set [3] concerns cytotoxic T cells and Tregs in peripheral blood. Put plainly: Phase 1 Ad+V with nivolumab in rGBM: peripheral blood flow cytometry. It is filed as in vivo, human. Conditions: after nivolumab alone.
Protocol: Methods: An open label, dose escalation Phase 1 study evaluating safety and tolerability of local, inducible IL-12 expression in combination with nivolumab in adult subjects with recurrent glioblastoma (rGBM) was commenced. Ad was administered by intratumoral injection (using a dose of 2×10^11 vp (2e11 vp)) along with daily veledimex (V) (at doses of 10-20 mg) QDx15 PO with nivolumab intravenous infusions (at doses of 1-3 mg/kg) at Day (−)7 (i.e., 7 days prior to administration of Ad+V), at Day 15 (after administration of Ad+V), then Q2W (i.e., once every 2-weeks).
The nature of data set [4]: Phase 1 Ad+V with nivolumab in rGBM: safety (adverse events). The format is in vivo, human. Conditions: by relatedness. On the procedure: as §1
For the next data set, the system named is GL-261 medullary glioma. Conditions: vehicle mOS 16 days.
The mark [5] stands for this setting: Cohort 1: Ad + V (10 mg) Nivolumab (1 mg/kg) N = 3.
Setting [6] is: Cohort 2: Ad + V (10 mg) Nivolumab (3 mg/kg) N = 3.
The mark [7] stands for this setting: Cohort 3: Ad + V (20 mg) Nivolumab (3 mg/kg) N = 2.

Marks after values point to notes of the source that are not given here.

Description for GL-261 medullary glioma: Ad-RTS-hIL-12 (Ad) is a recombinant, adenoviral-delivered, gene therapy for expression of interleukin-12 (IL-12) under the control of an orally administered activator ligand, veledimex (V), acting in concert with a ligand-inducible gene switch (also referred to as “RTS®”).

In the case of `CCC[C@@H](N(NC(=O)c1cccc(OC)c1CC)C(=O)c1cc(C)cc(C)c1)C(C)(C)C` [veledimex, (R)—N′-(3,5-dimethylbenzoyl)-N′-(2,2-dimethylhexan-3-yl)-2-ethyl-3-methoxybenzohydrazide], the “plasma and tumor V peak PK levels versus dose” value in data set [1] (V 10-40 mg) is recorded as “dose dependent”. In data set [1] (human, tumor (relative to plasma), oral, Main Study, tumor vs plasma at resection, about 3 hours after V, read-out: V tumor penetration), the Kp was about 0.4. For the same molecule, the “crossing of the blood-brain-barrier” value in data set [1] (rGBM patients) is reported as “crosses the blood-brain-barrier”. Further, the “crossing of the blood-brain barrier by orally administered veledimex” value in data set [2] is listed as “crosses the blood-brain barrier”.

“Nivolumab: antibody that binds PD-1; heavy and light chains SEQ ID NO: 10 and 11”: in the data set with IL-12 (after nivolumab alone (Day -7 dose), median baseline 0.9 pg/ml), the “peripheral IL-12 at Day 0 (median)” value is 1.0 pg/mL. For the same molecule, the “impact of pre-dosing on cytokine levels prior to Ad+V” value in the data set with IL-12 (nivolumab Day -7) is on record as “did not have an impact on cytokine levels”. Moreover, the “Tregs (FoxP3) at Day 0” value in data set [3] (baseline 1.5%) came to 0.8%. The “peripheral cytotoxic T cells CD3+CD8+ at Day 0” value in data set [3] (median baseline 23%) stood at 26%. In data set [4] (setting [5]), the “Related ≥ Grade 3 AEs: ALT increased” value is given as 0, the “Related ≥ Grade 3 AEs: Brain oedema (cerebral edema)” value (“Related ≥ Grade 3 AEs: Brain oedema” below) was 1 (33%), the “Related ≥ Grade 3 AEs: Lipase increased” value was 0 and the “Related ≥ Grade 3 AEs: Lymphocyte count Decreased” value is given as 0. For the same molecule, in data set [4] (setting [6]), the “Related ≥ Grade 3 AEs: ALT increased” value is listed as 0, the “Related ≥ Grade 3 AEs: Brain oedema” value is 0 and the “Related ≥ Grade 3 AEs: Lipase increased” value is listed as 1 (33%). For the same molecule, the “Related ≥ Grade 3 AEs: Lymphocyte count Decreased” value in data set [4] (Cohort 2: Ad + V (10 mg) Nivolumab (3 mg/kg) N = 3, one AE related to both) was 1 (33%)*. In data set [4] (setting [7]), the “Related ≥ Grade 3 AEs: ALT increased” value is 0, the “Related ≥ Grade 3 AEs: Brain oedema” value came out at 0, the “Related ≥ Grade 3 AEs: Lipase increased” value came out at 0 and the “Related ≥ Grade 3 AEs: Lymphocyte count Decreased” value was 0. Further, the “related SAEs” value in data set [4] (Cohorts 1-3) is recorded as “One SAE of brain oedema (cerebral edema) was considered related to nivolumab alone”.

Regarding `Cn1nnc2c(C(N)=O)ncn2c1=O` [temozolomide], in the data set on GL-261 medullary glioma, the mOS came to 25 days.
